Measured values as given in patent publication US7439329B2, “GEF-H1b: biomarkers, complexes assays and therapeutic uses thereof” (Sugen, Inc., priority 2002, dated 2008).

Columns and labels:
Format in all cases: cell-based, mouse
NIH-3T3 cells [1] = test: In vitro transformation (foci) assay
NIH-3T3 cells [2] = test: Morphology and localization in transfected NIH-3T3 cells (EGFP fluorescence, F-actin and microtubule staining)
Protocol: To analyse the effect of GEF-H1 on cell morphology in fibroblasts, EGFP (enhanced green fluorescent protein) fusion constructs of GEF-H1S and a series of mutant alleles of the PAK4 phosphorylation sites in GEF-H1S were introduced into NIH-3T3 cells. Also constructed, was a dominant negative allele by mutating the DH domain of GEF-H1 resulting in GEF-H-QR312,313MG. In a p21-binding domain (PBD) assay this dominant-negative allele inhibited accumulation of Rac-GTP but not Cdc42-GTP in NIH-3T3 cells. The actin cytoskeleton was stained with coumarin-phallicidin to contrast F-actin structures of EGFP fluorescing cells by microscopy.
Induction of F-actin structures in fibroblasts, namely the formation of filopodia, lamellipodia, and stress fibres is due to signalling by the active forms of Cdc42, Rac, and Rho, respectively. Because PAK proteins and specifically PAK4 play a role in regulating F-actin based morphological structures, experiments were devised to determine whether PAK4-induced changes in cell morphology were mediated by regulation of GEF-H1S. Also co-expressed were EGFP-GEF-H1 constructs with various HA epitope-tagged PAK4 alleles in NIH-3T3 cells. Exogenous PAK4 was detected with an anti-HA antibody (red) and the actin cytoskeleton was stained with coumarin-phallicidin (blue). Although NIH-3T3 cells have low but detectable levels of endogenous PAK4 and GEF-H1 these were not activated under the conditions of the experiment.
Residues phosphorylated by PAK4 in GEF-H1S are conserved in the MT (“microtubule”) bound form of GEF-H1, “GEF-H1M.” GEF-H1M contains a zinc finger domain in its amino terminus that allows it to bind to microtubules. The role microtubule binding in determining the ability of PAK4 to control GEF-H1M activity was investigated. Studies were performed with GEF-H1M that allowed simultaneous examination of both MT (through EGFP-GEF-H1M labelling of MTs in vivo) and actin cytoskeleton (through F-actin staining with coumarin-phallicidin). Also studied, were changes in the MT cytoskeleton by co-staining with β-tubulin antibodies.
GEF-H1S alleles were transiently expressed in NIH-3T3 cells or simultaneously expressed with PAK4 alleles. The GEF-H1S alleles were retrieved from the pcDNA vector by restriction with EcoR1 and Xho1 and inserted into pEGFP-C1 (Clontech,USA Cat#6082-1) restricted with EcoR1 and Sal1. The resulting protein was a hybrid of the brightly fluorescent protein, green fluorescent protein (GFP). The effects on cell morphology were traced by staining of F-actin with coumarin phallacidin (Molecular Probes, USA, Cat. # C-606). […] See, Callow et al., 2002. This finding was consistent with GEF-H1S being a substrate for PAK4, because activated PAK4 is also localized to the Golgi apparatus.
NIH-3T3, 293T, A549, HCT116 and H1299 cells were maintained in Dulbecco's modified Eagles medium (DMEM) 10% Fetal Bovine serum (FBS), penicillin and streptomycin from Invitrogen (Carlsbad, Calif.). For transfection, cells were seeded at 10^5 cells ml-1 for NIH-3T3 and […] for both 293T and H1299 unless otherwise stated. Transfection reagents Lipofectamine 2000 (Invitrogen) or Fugene (Roche Molecular) were used at […] of plasmid DNA. Cellular extracts for immunoblotting were prepared in lysis buffer. For immunoprecipitation experiments lysates were incubated with Protein G beads (Pharmacia) linked with appropriate antibody, glutathione sepharose beads (Pharmacia) with appropriate GST fusion protein and streptavidin beads (Pierce) linked to appropriate biotinylated peptides. For immunofluorescence, coverslips were placed in 24 well cell culture vessels and seeded at the densities above. Transfections took place after 16 h and unless otherwise stated were maintained in Optimem or DMEM with 0.2% FBS for 24 h until fixation. Microscopy was performed on a Nikon E800 microscope with 60× objective (1.5NA). […]

NIH-3T3 cells [3] = test: Anchorage independent survival and proliferation (XTT assay); details: over-expression in NIH-3T3; vessels which prevent adherence
Protocol: A stably expressing clone designated 192.58 containing GEF-H1S was established in the mouse fibroblast cell line, NIH-3T3. The pRSV/Rc subcloned vector expresses the GEF-H1S protein in tissue culture cells.
The GEF-H1S clones were plated in tissue culture vessels which prevent adherence. […] The ability for cells to proliferate was measured using the tetrazolium salt XTT based assay (Roche Molecular Biochemicals Cat# 1465015) which measured only metabolically active cells in culture. Measurements were made over a time course.

[4] = GEF-H1 allele alone, majority of transfected cells
[5] = co-expressed with PAK4 allele PAK4
[6] = co-expressed with PAK4 allele PAK4K350,351A
[7] = co-expressed with PAK4 allele PAK4S474E

B1: GEF-H1S: novel GEF-H1 splice isoform, residues 1-921, lacking N-terminal zinc finger domain (SEQ ID NO. 2) (protein)
chain: MPVTRASQPRKPSSAQQQKAALLKNNTALQSVSLRSKTTIRERPSSAIYPSDSFRQSLLGSRRGRSSLSLAKSVSTTNIAGHFNDESPLGLRRILSQSTDSLNMRNRTLSVESLIDEAEVIYSELMSDFEMDEKDFAADSWSLAVDSSFLQQHKKEVMKQQDVIYELIQTELHHVRTLKIMTRLFRTGMLEELHLEPGVVQGLFPCVDELSDIHTRFLSQLLERRRQALCPGSTRNFVIHRLGDLLISQFSGPSAEQMCKTYSEFCSRHSKALKLYKELYARDKRFQQFIRKVTRPAVLKRHGVQECILLVTQRITKYPLLISRILQHSHGIEEERQDLTTALGLVKELLSNVDEGIYQLEKGARLQEIYNRMDPRAQTPVPGKGPFGREELLRRKLIHDGCLLWKTATGRFKDVLVLLMTDVLVFLQEKDQKYIFPTLDKPSVVSLQNLIVRDIANQEKGMFLISAAPPEMYEVHTASRDDRSTWIRVIQQSVRTCPSREDFPLIETEDEAYLRRIKMELQQKDRALVELLREKVGLFAEMTHFQAEEDGGSGMALPTLPRGLFRSESLESPRGERLLQDAIREVEGLKDLLVGPGVELLLTPREPALPLEPDSGGNTSPGVTANGEARTFNGSIELCRADSDSSQRDRNGNQLRSPQEEALQRLVNLYGLLHGLQAAVAQQDTLMEARFPEGPERREKLCRANSRDGEAGRAGAAPVAPEKQATELALLQRQHALLQEELRRCRRLGEERATEAGSLEARLRESEQARALLEREAEEARRQLAALGQTEPLPAEAPWARRPVDPRRRSLPAGDALYLSFNPPQPSRGTDRLDLPVTTRSVHRNFEDRERQELGSPEERLQDSSDPDTGSEEEGSSRLSPPHSPRGETLAETWTRDFTRMQDIPEETESRDGEAVASES
In the case of B1, the foci induction (NIH-3T3 cells [1]; NIH-3T3 cells) is reported as “able to induce foci”, the “effect on foci in co-transformation with activated Ras” value (NIH-3T3 cells [1]; co-transformation with activated Ras, titrations) is reported as “synergizes with activated Ras” and the F-actin (NIH-3T3 cells [2]; [4]) is reported as “occassional stress fibers”. The Microtubule (NIH-3T3 cells [2]; [4]) was “radial array”, the cell morphology (NIH-3T3 cells [2]; [4]) was “polarized” and the subcellular localization (NIH-3T3 cells [2]; GFP fusion transiently expressed in NIH-3T3 cells) was “localized at the perinuclear region of the Golgi apparatus”. The F-actin (NIH-3T3 cells [2]; [5]) was “extreme filopodia”, the Microtubule (NIH-3T3 cells [2]; [5]) was “radial array” and the cell morphology (NIH-3T3 cells [2]; [5]) was “contracted”. For the same molecule, the F-actin (NIH-3T3 cells [2]; [6]) was “stress fibers”, the Microtubule (NIH-3T3 cells [2]; [6]) was “radial array” and the cell morphology (NIH-3T3 cells [2]; [6]) was “elongated”. For the same molecule, the F-actin (NIH-3T3 cells [2]; [7]) was “peripheral lammellipodia”, the Microtubule (NIH-3T3 cells [2]; [7]) was “disorganized” and the cell morphology (NIH-3T3 cells [2]; [7]) was “polarized”. The “anchorage independent survival and proliferation” value (NIH-3T3 cells [3]) was “anchorage independent”.
